{"source": "patent US20040170969", "test_system": "recombinant MOB expressed as a GST-fusion protein"}
{"substance": "FLAG-Ndr (cells treated with okadaic acid)", "values": [{"measurement": "phosphorylation of GST-MOB by Ndr (FIG. 19)", "value": "recombinant MOB expressed as a GST-fusion protein is specifically phosphorylated by active Ndr"}]}
